Laboratory results taken from patent publication US20250011363A1, “OPTIMIZED SHORTENED PEPTIDE THAT BINDS TO ACETYLCHOLINE RECEPTOR, AND USE THEREOF” (SKINMED CO., LTD., priority 2021, published 2025).

Biological target: acetylcholine receptor
Experiment: SPR, receptor on CM5 chip, peptide 10 µM

Row | Binding affinity (RU) | Binder
1 | 135 RU | RRQFSK [6mer-1-508]
2 | 139 RU | RRGLSR [6mer-1-515]
3 | 154 RU | RKWICK [6mer-1-512]
4 | 128 RU | KKGRSK [6mer-1-514]
5 | 136 RU | RKVYRR [6mer-1-511]
6 | 154 RU | RKQIRR [6mer-1-513]
7 | 122 RU | KRRQSR [6mer-1-510]
8 | 139 RU | RRSQSK [6mer-1-507]
9 | 128 RU | RKWLRK [6mer-1-509]
10 | 139 RU | KKRFSR [6mer-1-516]
11 | 151 RU | RRRLSK [6mer-1-506]

The next lines start with the binder.

Row | Binder | Binding affinity (RU)
12 | RKLFSR [6mer-1-502] | 146 RU
13 | RRVYQR [6mer-1-496] | 148 RU
14 | KRVLYK [6mer-1-501] | 154 RU
15 | RRRFTR [6mer-1-505] | 148 RU
16 | KRQVRK [6mer-1-486] | 151 RU
17 | KKLFRR [6mer-1-490] | 133 RU
18 | KRRLCK [6mer-1-503] | 151 RU
19 | KKLFSR [6mer-1-494] | 128 RU
20 | KKWYSK [6mer-1-488] | 135 RU
21 | RRSITR [6mer-1-504] | 122 RU
22 | KRGYLR [6mer-1-493] | 131 RU
23 | KRRQLR [6mer-1-497] | 133 RU
24 | RRWRQK [6mer-1-492] | 139 RU
25 | RKRQQK [6mer-1-498] | 139 RU
26 | RKLRLR [6mer-1-491] | 137 RU
27 | RKLQSK [6mer-1-500] | 151 RU
28 | RKLFYR [6mer-1-499] | 149 RU
29 | KKVITK [6mer-1-489] | 148 RU
30 | RKGRRK [6mer-1-487] | 121 RU
31 | RKGFQR [6mer-1-495] | 126 RU
